Legend:
[1] = biological target: T1, S1PL2025 (Burkholderia pseudomallei, UniProt Q63IP4)
T1 construct: gene BPSS2025

[2] = biological target: T1, S1PL2025; remark: listed apart in the source
[3] = system: CCCCCCCCCCCCC/C=C/C=O; experiment: purified protein; conditions: pH 7.5; 37.0 °C

T1 sequence (Q63IP4 35-507 limits assumed): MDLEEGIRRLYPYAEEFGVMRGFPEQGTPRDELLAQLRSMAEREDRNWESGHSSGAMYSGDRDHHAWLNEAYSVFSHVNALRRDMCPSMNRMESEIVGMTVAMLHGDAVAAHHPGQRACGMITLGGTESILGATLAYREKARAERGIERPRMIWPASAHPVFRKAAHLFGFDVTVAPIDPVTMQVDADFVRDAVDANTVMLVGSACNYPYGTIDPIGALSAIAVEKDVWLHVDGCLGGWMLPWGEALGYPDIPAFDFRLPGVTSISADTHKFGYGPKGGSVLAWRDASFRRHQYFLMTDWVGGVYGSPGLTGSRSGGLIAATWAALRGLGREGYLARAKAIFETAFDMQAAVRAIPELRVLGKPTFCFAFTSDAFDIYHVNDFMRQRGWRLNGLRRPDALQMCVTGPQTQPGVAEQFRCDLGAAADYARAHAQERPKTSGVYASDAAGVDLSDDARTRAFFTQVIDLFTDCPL

## NCCOP(=O)(O)O [PE]
[1]
  UV-vis spectroscopy of PLP: UV-vis analysis of the binding of S1P and PE to the S1PL2025 enzyme

## Cc1ncc(COP(=O)(O)O)c(C=O)c1O [PLP]
[2]
  UV-vis spectroscopy: A similar PLP binding spectrum was observed with S1PL2025

## FALDH (Homo sapiens)
[3]
  Km: 19.4 ± 3.2 µM
  Vmax: 0.315 µmol/min/mg
  kcat/Km: 11300 M⁻¹ s⁻¹

Source: publication PMC5234717 (Journal of Lipid Research, 2016)
